Measurements as given in patent US20100129294.

What was measured:
[1] = molecular target: transthyretin (TTR) fibrils, P02766
[2] = molecular target: Aβ40 fibrils formed from a synthetic Aβ40 peptide
[3] = molecular target: β2-microglobulin (β2-M) fibrils, P61769
[4] = molecular target: T1, insulin fibrils formed from purified bovine insulin, P01317
T1 chain: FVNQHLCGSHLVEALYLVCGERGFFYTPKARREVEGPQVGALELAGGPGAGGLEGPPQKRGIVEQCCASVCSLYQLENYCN

Chain of β2-microglobulin (β2-M) fibrils, P61769 (P61769 21-119): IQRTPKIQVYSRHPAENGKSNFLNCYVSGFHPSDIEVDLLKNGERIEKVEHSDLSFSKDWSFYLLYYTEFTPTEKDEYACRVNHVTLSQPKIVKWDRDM

B1: nattokinase (protein)
chain: AQSVPYGISQIKAPALHSQGYTGSNVKVAVIDSGIDSSHPDLNVRGGASFVPSETNPYQDGSSHGTHVAGTIAALNNSIGVLGVAPSASLYAVKVLDSTGSGQYSWIINGIEWAISNNMDVINMSLGGPTGSTALKTVVDKAVSSGIVVAAAAGNEGSSGSTSTVGYPAKYPSTIAVGAVNSSNQRASFSSVGSELDVMAPGVSIQSTLPGGTYGAYNGTSMATPHVAGAAALILSKHPTWTNAQVRDRLESTATYLGNSFYYGKGLINVQAAAQ
degradation of TTR fibrils at pH 7.4 and 37 C, by ThT fluorescence emission at 487 nm [1]: TTR fibrils were almost completely degraded by nattokinase in one hour | loss of negative ellipticity at 218 nm in CD spectra after 1 hr of digestion (40 C, pH 7) [2]: nattokinase degraded all three fibrils | degradation of β2-M fibrils at pH 7.4 and 37 C, by ThT fluorescence emission at 487 nm [3]: As for β2-M fibrils, it was degraded near completion in two hours | degradation of insulin fibrils at pH 5, 40 C, by CD spectroscopy [4]: At pH 5, nattokinase did not show any activity | degradation of insulin fibrils at pH 5-10, 40 C, by CD spectroscopy [4]: the nattokinase activity increased gradually with increasing pH and reached a maximal activity at pH 10 in the range tested | loss of negative ellipticity at 218 nm in CD spectra after 1 hr of digestion (40 C, pH 7) [4]: nattokinase degraded all three fibrils
